Laboratory results: patent publication US20220331457A1 (TELIX INTERNATIONAL, published 2022)

How the values were obtained:
[1] = biological target: T1, human carbonic anhydrase IX (CAIX) (human, UniProt Q16790 38-414); test: Biacore multicycle kinetic analysis (conclusion of Example 1)
Procedure: (§1) The purified antibodies were diluted to a concentration of 1 μg/ml in HBS-P+. […] Following capture, the surface was allowed to stabilise. Kinetic data was obtained using a flow rate of 30 μl/min to minimise any potential mass transfer effects. For the kinetics analysis, carbonic anhydrase IX (CAIX) was used. Multiple repeats of the blank (CAIX) and a repeat of a single concentration of the analyte were programmed into the kinetic run in order to check the stability of both the surface and analyte over the kinetic cycles. For kinetic analysis, a two-fold dilution range was selected from 50 nM to 0.078 nM CAIX. The association phase of CAIX was monitored for 280 seconds and the dissociation phase was monitored for 300 seconds. Regeneration of the Protein G surface was conducted using an injection of 10 mM glycine-HCL pH 1.5 followed by an injection of 10 mM glycine-HCL pH 1.5 containing 0.5% P20. The signal from the reference channel Fc1 was subtracted from that of Fc2, Fc3 and Fc4 to correct for differences in non-specific binding to a reference surface, and a global Rmax parameter was used in the 1-to-1 binding model. The relative KD was calculated by dividing the KD of the humanised variants by that of the chimeric antibody on the same chip.

[2] = biological target: T1, human carbonic anhydrase IX (CAIX); test: SPR (Biacore T200), multicycle kinetics; purified CHO-expressed antibody captured on Protein G chip, CAIX as analyte
Procedure: as §1

[3] = biological target: T1, human carbonic anhydrase IX (CAIX); test: SPR (Biacore T200), single cycle kinetics; antibody in HEK EBNA supernatant captured on Protein G chip, CAIX as analyte
Procedure: All single cycle kinetic experiments were run at 25° C. with HBS-P+ running buffer (pH 7.4) (GE Healthcare, Little Chalfont, UK). For direct comparison, all antibodies were captured on a Protein G chip (GE Healthcare, Uppsala, Sweden).
Antibodies were diluted in running buffer to a final concentration of 0.5 μg/ml, based on concentrations assessed by ELISA titre. At the start of each cycle, antibodies were loaded onto Fc2, Fc3 and Fc4 of the Protein G chip (GE Healthcare, Little Chalfont, UK). IgGs were captured at a flow rate of 10 μl/min to give an immobilisation level (RL) of ˜79 RU, the theoretical value to obtain an Rmax of ˜50 RU. The surface was then allowed to stabilise. Single cycle kinetic data was obtained with Carbonic Anhydrase IX (CAIX, Stratech, Newmarket, UK) as the analyte at a flow rate of 30 μl/min to minimise any potential mass transport limitations. […] The signal from the reference channel Fc1 (no antibody) was subtracted from that of Fc2, Fc3 and Fc4 to correct for differences in non-specific binding to a reference surface. […] The association phase for the four injections of increasing concentrations of CAIX was monitored for 200 seconds each time and a single dissociation phase was measured for 300 seconds following the last injection of CAIX. Regeneration of the Protein G surface was conducted using an injection of 10 mM glycine-HCL pH 1.5 followed by an injection of 10 mM glycine-HCL pH 1.5 containing 0.5% P20.

binding relative to VH0/Vκ0 with the same IgG backbone [1] [fold] | relative KD (KD of the variant divided by KD of the chimeric antibody with the same IgG constant domain) [2] [fold] | relative KD (against the reference chimeric VH0/Vκ0 IgG1) [3] [fold] | binding result [3] | Binder
≤ 2 | ≤ 2 | – | – | Girentuximab humanised VH4/Vκ4 IgG4 (S228P, L235E, H310A, H435Q) (antibody) heavy: not shown light: DIQMTQSPSSLSASVGDRVTITCKASQNVVSAVAWYQQKPGQAPRLLIYSASNRYTGVPDRFSGSGSGTDFTLTISSLQAEDLADYYCQQYSNYPWTFGGGTKVEIKRTVAAPSVFIFPPSDEQLKSGTASVVCLLNNFYPREAKVQWKVDNALQSGNSQESVTEQDSKDSTYSLSSTLTLSKADYEKHKVYACEVTHQGLSSPVTKSFNRGEC
≤ 2 | ≤ 2 | – | – | Girentuximab humanised VH3/Vκ4 IgG4 (S228P, L235E, H310A, H435Q) (antibody) heavy: not shown light: DIQMTQSPSSLSASVGDRVTITCKASQNVVSAVAWYQQKPGQAPRLLIYSASNRYTGVPDRFSGSGSGTDFTLTISSLQAEDLADYYCQQYSNYPWTFGGGTKVEIKRTVAAPSVFIFPPSDEQLKSGTASVVCLLNNFYPREAKVQWKVDNALQSGNSQESVTEQDSKDSTYSLSSTLTLSKADYEKHKVYACEVTHQGLSSPVTKSFNRGEC
≤ 2 | ≤ 2 | – | – | Girentuximab humanised VH4/Vκ3 IgG4 (S228P, L235E, H310A, H435Q) (antibody) heavy: not shown light: DIQMTQSPSSLSASVGDRVTITCKASQNVVSAVAWYQQKPGQAPRLLIYSASNRYTGVPDRFSGSGSGTDFTLTISSLQAEDLADYFCQQYSNYPWTFGGGTKVEIKRTVAAPSVFIFPPSDEQLKSGTASVVCLLNNFYPREAKVQWKVDNALQSGNSQESVTEQDSKDSTYSLSSTLTLSKADYEKHKVYACEVTHQGLSSPVTKSFNRGEC
– | – | ≤ 2 | – | Girentuximab humanised VH1/Vκ1 IgG1 (antibody, V domains shown) VH: DVKLVESGGGLVKPGGSLRLSCAASGFTFSNYYMSWVRQAPGKGLELVAAINSDGGITYYLDTVKGRFTISRDNAKNTLYLQMSSLKSEDTALYYCARHRSGYFSMDYWGQGTSVTVSS VL: DIVMTQSPSFLSASVGDRVTITCKASQNVVSAVAWYQQKPGQAPKLLIYSASNRYTGVPDRFTGSGSGTDFTLTISSLQSEDLADYFCQQYSNYPWTFGGGTKVEIKR
– | – | – | binds | Girentuximab humanised VH5/Vκ1 IgG1 (antibody, V domains shown) VH: EVQLVESGGGLVKPGGSLRLSCAASGFTFSNYYMSWVRQAPGKGLEWVAAINSDGGITYYLDTVKGRFTISRDNAKNTLYLQMNSLRAEDTALYYCARHRSGYFSMDYWGQGTLVTVSS VL: DIVMTQSPSFLSASVGDRVTITCKASQNVVSAVAWYQQKPGQAPKLLIYSASNRYTGVPDRFTGSGSGTDFTLTISSLQSEDLADYFCQQYSNYPWTFGGGTKVEIKR
– | – | – | binds | Girentuximab humanised VH5/Vκ3 IgG1 (antibody, V domains shown) VH: EVQLVESGGGLVKPGGSLRLSCAASGFTFSNYYMSWVRQAPGKGLEWVAAINSDGGITYYLDTVKGRFTISRDNAKNTLYLQMNSLRAEDTALYYCARHRSGYFSMDYWGQGTLVTVSS VL: DIQMTQSPSSLSASVGDRVTITCKASQNVVSAVAWYQQKPGQAPRLLIYSASNRYTGVPDRFSGSGSGTDFTLTISSLQAEDLADYFCQQYSNYPWTFGGGTKVEIKR
– | – | ≤ 2 | – | Girentuximab humanised VH1/Vκ2 IgG1 (antibody, V domains shown) VH: DVKLVESGGGLVKPGGSLRLSCAASGFTFSNYYMSWVRQAPGKGLELVAAINSDGGITYYLDTVKGRFTISRDNAKNTLYLQMSSLKSEDTALYYCARHRSGYFSMDYWGQGTSVTVSS VL: DIVMTQSPSSLSASVGDRVTITCKASQNVVSAVAWYQQKPGQAPRLLIYSASNRYTGVPDRFTGSGSGTDFTLTISSLQAEDLADYFCQQYSNYPWTFGGGTKVEIKR
– | – | – | binds | Girentuximab humanised VH5/Vκ2 IgG1 (antibody, V domains shown) VH: EVQLVESGGGLVKPGGSLRLSCAASGFTFSNYYMSWVRQAPGKGLEWVAAINSDGGITYYLDTVKGRFTISRDNAKNTLYLQMNSLRAEDTALYYCARHRSGYFSMDYWGQGTLVTVSS VL: DIVMTQSPSSLSASVGDRVTITCKASQNVVSAVAWYQQKPGQAPRLLIYSASNRYTGVPDRFTGSGSGTDFTLTISSLQAEDLADYFCQQYSNYPWTFGGGTKVEIKR
– | – | ≤ 2 | – | Girentuximab humanised VH3/Vκ1 IgG1 (antibody) heavy: not shown light: DIVMTQSPSFLSASVGDRVTITCKASQNVVSAVAWYQQKPGQAPKLLIYSASNRYTGVPDRFTGSGSGTDFTLTISSLQSEDLADYFCQQYSNYPWTFGGGTKVEIKRTVAAPSVFIFPPSDEQLKSGTASVVCLLNNFYPREAKVQWKVDNALQSGNSQESVTEQDSKDSTYSLSSTLTLSKADYEKHKVYACEVTHQGLSSPVTKSFNRGEC
– | – | – | binds | Girentuximab humanised VH5/Vκ4 IgG1 (antibody, V domains shown) VH: EVQLVESGGGLVKPGGSLRLSCAASGFTFSNYYMSWVRQAPGKGLEWVAAINSDGGITYYLDTVKGRFTISRDNAKNTLYLQMNSLRAEDTALYYCARHRSGYFSMDYWGQGTLVTVSS VL: DIQMTQSPSSLSASVGDRVTITCKASQNVVSAVAWYQQKPGQAPRLLIYSASNRYTGVPDRFSGSGSGTDFTLTISSLQAEDLADYYCQQYSNYPWTFGGGTKVEIKR
≤ 2 | ≤ 2 | – | – | Girentuximab humanised VH4/Vκ3 IgG1 (H310A, H435Q) (antibody) heavy: not shown light: DIQMTQSPSSLSASVGDRVTITCKASQNVVSAVAWYQQKPGQAPRLLIYSASNRYTGVPDRFSGSGSGTDFTLTISSLQAEDLADYFCQQYSNYPWTFGGGTKVEIKRTVAAPSVFIFPPSDEQLKSGTASVVCLLNNFYPREAKVQWKVDNALQSGNSQESVTEQDSKDSTYSLSSTLTLSKADYEKHKVYACEVTHQGLSSPVTKSFNRGEC
– | – | ≤ 2 | – | Girentuximab humanised VH1/Vκ4 IgG1 (antibody, V domains shown) VH: DVKLVESGGGLVKPGGSLRLSCAASGFTFSNYYMSWVRQAPGKGLELVAAINSDGGITYYLDTVKGRFTISRDNAKNTLYLQMSSLKSEDTALYYCARHRSGYFSMDYWGQGTSVTVSS VL: DIQMTQSPSSLSASVGDRVTITCKASQNVVSAVAWYQQKPGQAPRLLIYSASNRYTGVPDRFSGSGSGTDFTLTISSLQAEDLADYYCQQYSNYPWTFGGGTKVEIKR
– | – | ≤ 2 | – | Girentuximab humanised VH1/Vκ3 IgG1 (antibody, V domains shown) VH: DVKLVESGGGLVKPGGSLRLSCAASGFTFSNYYMSWVRQAPGKGLELVAAINSDGGITYYLDTVKGRFTISRDNAKNTLYLQMSSLKSEDTALYYCARHRSGYFSMDYWGQGTSVTVSS VL: DIQMTQSPSSLSASVGDRVTITCKASQNVVSAVAWYQQKPGQAPRLLIYSASNRYTGVPDRFSGSGSGTDFTLTISSLQAEDLADYFCQQYSNYPWTFGGGTKVEIKR
– | – | ≤ 2 | – | Girentuximab humanised VH4/Vκ1 IgG1 (antibody) heavy: not shown light: DIVMTQSPSFLSASVGDRVTITCKASQNVVSAVAWYQQKPGQAPKLLIYSASNRYTGVPDRFTGSGSGTDFTLTISSLQSEDLADYFCQQYSNYPWTFGGGTKVEIKRTVAAPSVFIFPPSDEQLKSGTASVVCLLNNFYPREAKVQWKVDNALQSGNSQESVTEQDSKDSTYSLSSTLTLSKADYEKHKVYACEVTHQGLSSPVTKSFNRGEC
– | – | – | binds | Girentuximab humanised VH3/Vκ5 IgG1 (antibody) heavy: not shown light: DIQMTQSPSSLSASVGDRVTITCKASQNVVSAVAWYQQKPGQAPRRLIYSASNRYTGVPDRFSGSGSGTDFTLTISSLQAEDLADYYCQQYSNYPWTFGGGTKVEIKRTVAAPSVFIFPPSDEQLKSGTASVVCLLNNFYPREAKVQWKVDNALQSGNSQESVTEQDSKDSTYSLSSTLTLSKADYEKHKVYACEVTHQGLSSPVTKSFNRGEC
– | – | – | binds | Girentuximab humanised VH5/Vκ5 IgG1 (antibody, V domains shown) VH: EVQLVESGGGLVKPGGSLRLSCAASGFTFSNYYMSWVRQAPGKGLEWVAAINSDGGITYYLDTVKGRFTISRDNAKNTLYLQMNSLRAEDTALYYCARHRSGYFSMDYWGQGTLVTVSS VL: DIQMTQSPSSLSASVGDRVTITCKASQNVVSAVAWYQQKPGQAPRRLIYSASNRYTGVPDRFSGSGSGTDFTLTISSLQAEDLADYYCQQYSNYPWTFGGGTKVEIKR
– | – | – | binds | Girentuximab humanised VH4/Vκ5 IgG1 (antibody) heavy: not shown light: DIQMTQSPSSLSASVGDRVTITCKASQNVVSAVAWYQQKPGQAPRRLIYSASNRYTGVPDRFSGSGSGTDFTLTISSLQAEDLADYYCQQYSNYPWTFGGGTKVEIKRTVAAPSVFIFPPSDEQLKSGTASVVCLLNNFYPREAKVQWKVDNALQSGNSQESVTEQDSKDSTYSLSSTLTLSKADYEKHKVYACEVTHQGLSSPVTKSFNRGEC
≤ 2 | ≤ 2 | – | – | Girentuximab humanised VH3/Vκ4 IgG1 (H310A, H435Q) (antibody) heavy: not shown light: DIQMTQSPSSLSASVGDRVTITCKASQNVVSAVAWYQQKPGQAPRLLIYSASNRYTGVPDRFSGSGSGTDFTLTISSLQAEDLADYYCQQYSNYPWTFGGGTKVEIKRTVAAPSVFIFPPSDEQLKSGTASVVCLLNNFYPREAKVQWKVDNALQSGNSQESVTEQDSKDSTYSLSSTLTLSKADYEKHKVYACEVTHQGLSSPVTKSFNRGEC
– | – | – | binds | Girentuximab humanised VH1/Vκ5 IgG1 (antibody, V domains shown) VH: DVKLVESGGGLVKPGGSLRLSCAASGFTFSNYYMSWVRQAPGKGLELVAAINSDGGITYYLDTVKGRFTISRDNAKNTLYLQMSSLKSEDTALYYCARHRSGYFSMDYWGQGTSVTVSS VL: DIQMTQSPSSLSASVGDRVTITCKASQNVVSAVAWYQQKPGQAPRRLIYSASNRYTGVPDRFSGSGSGTDFTLTISSLQAEDLADYYCQQYSNYPWTFGGGTKVEIKR
≤ 2 | ≤ 2 | – | – | Girentuximab humanised VH4/Vκ4 IgG1 (H310A, H435Q) (antibody) heavy: not shown light: DIQMTQSPSSLSASVGDRVTITCKASQNVVSAVAWYQQKPGQAPRLLIYSASNRYTGVPDRFSGSGSGTDFTLTISSLQAEDLADYYCQQYSNYPWTFGGGTKVEIKRTVAAPSVFIFPPSDEQLKSGTASVVCLLNNFYPREAKVQWKVDNALQSGNSQESVTEQDSKDSTYSLSSTLTLSKADYEKHKVYACEVTHQGLSSPVTKSFNRGEC
